Assay: soluble fraction after stress (log2 fold change); higher = more stays soluble; pooled small domains, quantitative proteomics
Conditions: stress: 75 degC
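Note: 20 min heating vs room temperature control held 20 min.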

| Sequence | soluble fraction (log2) |
| --- | --- |
| HMATPIAGTKYTLNNTPVYGTEKGPSIGKRSGIYYTWDATVRNGRIRMTNSPARVGVPWQVSFWVEVNKL | -2.9 |
| HMATPRLAIVPQSAAGRRLDAVLAELFPEYSRSRLSAWIKTGDVMVDGAAPRGRDPVRGGEEITLTAVQ | -0.183 |
| HMATPTEHQLQAQARAVVEKAERLLDRASADDREDIINLIEKITDALAAEDFTAVKAPLAELSDILFYLE | -0.104 |
| HMATPTMEDYIEVIYSLVKTKGYARSADIAEKLEVYPSTVTKMLKKLDAEGYIVYEKYRGIALTDIGKKMG | -2.17 |
| HMATSNGEFVIPDGGLQFEELERSLLMQALKKSGGSQTGAARLLGLSRDTLRYRLEKFGIDAAAVRE | -0.39 |
| HMATVTVPNLKGMTPSGAESALAELNLKGAVGDSVESNDVENGKVASQDQAAGSDAKEGDTITYHLSS | 0.235 |
| HMATYETEVISGVNLRSAPNTSASVYRLLSKGEDIHVIQKVNDYWLKVQTKDGKIGYISASSKYTNYIA | -1.52 |
| HMAVEETFTITWLDRDGTVLEVDENVLKGTMPSFDGHIPPHDGLEFKGWDPEVVPVEGDATYTATYKA | 0.508 |
| HMAVENTGLSKRELEILQMMARGMSNQEIGDALFISLSTVKTHVASIFSKLQAVRRTQAVGIAKSLKII | -2.91 |
| HMAVFSKKQIFDTAFALFESKGLEAITARNLGKALSSSPAPIYAHYSSITELKNELISVAKDR | -3.06 |
| HMAVGDMISKLRTAANMSQEQFAELFGVTRQSVQKWENSFSVPELEKLIKISKYFDVSLDALVLRSDARVT | -2.5 |
| HMAVLFFVKRGERILGPTRLADLFQHAASGRLRANDLVGESPKGPWLPARQLDELEDAWASSRDATEAAAA | -0.817 |
| HMAVNQEFKNTINRIKYEYSLNQSQIADRLGVKKTYLSDMINGRVPYNETMNKKVNDVFPLPP | -0.169 |
| HMAVPTHVEFPVVGLQRSGITSLEQAIATVPGVSKAVVNVSDNRIFVDYDPTRSKVSDLLEVVRGAGFTP | -0.043 |
| HMAVQAESDIIKRAALLRNLGNTSMQLKNIDQAIDFYKQGIKLHPEDAELKYNLSQALRQKSQSNN | 0.055 |
| HMAVQEDAGLAREDLPPEVQGLLQEREAARAAKDWGKSDALRRQLQDLGYAIKDTAQGMEIKRT | 0.817 |
| HMAVRNTKQKQLVLSLLKNSGRPMTAGEIYRLAVQQYPNIAKSTVYRNLENLVSRGEVSQGMHQNGESFYS | -0.697 |
| HMAVSPEEQKKRIIELFRNRNEVSFKEIFDLPTKGHFVITLLAVLDLARQQIVIMEQLENEGIIKFTKGA | 0.134 |
| HMAVSSHAVKQRIRSLIQAEDPAAPLSDEALRLALSALGVDVSRRVIAKYRAELNIPSSSQRKK | -0.823 |
| HMAVSVPDVMGLTYEEAYNKITAEGLLVNRLESYTGLVEKGRVISQLPVGGEPAAKGSTVNVNVSL | 0.466 |
| HMAVTFPYTAYATDAVRLRERPSSSADVLAVIRKGDAVLVTGTDGNYAIVDYEGKRGYVVSSFIAT | -0.522 |
| HMAVWRIKVNYIPGYGVNIWSSYKNGHFTGKRAMHGETYEVLETKKDQDGNTWYKLDDHQWIEGRYAINAK | -2.45 |
| HMAYMETIERVEALAPGTKFNLKALFGTDWTQSRGTKLTLGKTFYEMVESGYVKTAKVLGKDSSNIMQYER | 0.0793 |
| HMAYSEEERNLIRSRLKDVAAALFKEKGIRDTNIDEIYTPVGISKTFFYSFFPSKAVLAIAIMK | -0.248 |
| HMAYVDWYENKQPTHEEAFKKLLGRIHPGAIVLLHSTSKTNGEILDELLTKWEEMGYRFGTLDELTGN | -1.58 |
| HMDAATDAIKAEVRALLEMANAQGIDTESIMLEAHEQTRNATEQDYYEAAKSALEAAIAGSNRDR | 0.435 |
| HMDADGEPIKLDQIGISHLSFTVADVKSLGEELVAKGVKLAAPMEAFTSPEGRISSIFVYDPDGILLQFDD | 0.136 |
| HMDADRLSPREREMLQFIARGQSNKEIARALELAESTVKIHVQNMLRKLNLSSRVQAAVFAVENGLG | -1.59 |

| Sequence | soluble fraction (log2) |
| --- | --- |
| HMDAGLAEIIRSFEDNLGGFPPAAREDLLGWREIFTDDLILLAIKKAALAGVRKWSYVNGILKVWKNEGVR | -2.23 |
| HMDAHYMEMKGKTGTAFTMLRPAGKIDIEGQIFDAVAEAGFIEKGEAIRVVKYENAQLIVRK | -0.446 |
| HMDAIAYLGSRLKEIRLKSGLSLREIARQLDVSPSFISQIENGKSQPSVATLYAFAKLLNVPVDVLFQPS | -2.59 |
| HMDAKNNPQVMAQIRAILTAKGLSEDEVKTRLKTKNIDVDKMTDQEIIAQRPAIEAIINEMEQEKKQKMG | 0.0493 |
| HMDALPLIQLEKEIKDFISQGQKINAIKHYRNVMDRDFGTTISLKLAKYTVDALAQNIKVDLTKGYDQ | -1.01 |
| HMDALTLSIDAQGALYWNGQPVSRELAAQRFVEAAAQRPQPELHLRADQNVAYRHVAMTLADASRAGLTR | -0.248 |
| HMDANAYTYKVSEDTDTRTGEKIFLVKVAEKLSRKEYIVVNNYMKSLGSYYSKFKHAFLFKENPTEKL | -0.55 |
| HMDANLGEIFKVYEQEIGALTPFVREEMLDAIDHYPRDWILDAIRESAKSNARNWKYTLAILKRWKAEG | -0.284 |
| HMDAPIIRLLNSLVQRAVTTTASDIHIEPFEGETKVRMRIDGVIIDYVTLQRALHQPLIARIKIMSNLD | -0.15 |
| HMDAPKTGSLVVSKAVNYGSWSGFTFRLHGTSDKGNSVDVTATTGSDGKAYFKDIEIGTYTLEEVN | -0.406 |
| HMDAQEAAWARKMMETLPEKQKLSVALRIEEGLSFKEIGEIIGSSEGAARVNYFHGIRRLRELL | -0.789 |
| HMDAQNLQDQLFGFLKANPTQAYPAQTLADGLRLDDANAFTKVVQALAALERGGKVKVNEEGAFQYDAEK | 0.43 |
| HMDARSTHIAAIHVLKSKLQLQDSDYRALLLTLTGQTSSKDLSEHQRRAVRNHMQQLAERMGVVQ | -1.46 |
| HMDATFKVRVSVPDLNIRSGPGTNYAATGRFTGVGVFTITAVQSGQGSSSGWGKLKSGAGWIALDYAKR | -3.78 |
| HMDATIGGFKITDSAIYSGVKNNVNAGVRGTYIDKDGQIAFGDSNSYLKYYKDTDGKWKLEVSASSVKF | 0.454 |
| HMDAVDKDGNHMTFKKWSEQLQEAFHALELYDTTRAKQILSELVKFQVDSDITKSLKAIITNIDDMMA | -1.13 |
| HMDAYDEVTTLSQMVASGKNTTVAHLKHLKEYHQTDYLRQAVEWLLSNRKNVSFSVDEVMQEVHN | -0.0471 |
| HMDAYLPETVQKLLDVMDFDVPYSAAQLMEKLGLKSRASFRKLYLLPALEKNLIAMGVPDKPTSRNQTYIR | -0.787 |
| HMDAYSYFIRTYPLVDDPLIGDIRRIFAETHDGNPAGDADVRHILWRLLFERELYPTLDEATADWY | -2.39 |
| HMDDEAVQIMTLHISKGLEFDVVFALGLVSRTPESKEIEELEAEKQRQLYVAMTRAEKWLIVAA | 0.202 |
| HMDDEDLAFLQREFVSYQQAMDYYGLGYKPVVRLSHISGSVYKIGKKVLIRRNIFEEYLRNHV | 0.0397 |
| HMDDFGERLRKLRVAQDLTQQQLGEKLGVVPSTIGKYEKVKDSYPSIEVLIKLSDFFSVSTDYLLKG | -2.19 |
| HMDDFTEVLLQYLKDHDGYSSIHDKTDAETIYNTFGVSKKTFKKAVGDLYKKRLIVLEEEGIRLLG | -0.151 |
| HMDDISLEEIKYISSKLETKVNEIEELLVRYYDGETNEAEEKELKEFFAQADVPAHLLAEKRLFMQLASQ | 0.245 |
| HMDDKVGKVFNYVQEKILTGEWDIGDKITPEISLSKELGVSRSVVREAIKKFVALNILSRTQGGGTYVNNL | -0.848 |
| HMDDNMNEQWKMILNSIAKKGSVTRQETEKILGIGQTRAHVLLKAMIHAGMIKAVGDGKKRRYVR | -2.28 |
| HMDDNRSLSDLAQQVFKRENIQVSRDTLSLLVSRLGSDRAVSRQEIEKLALFAGSNGKLTEEDIHNALG | 0.0459 |

Source: the domain aggregation screens of Martell et al. (2025)
